Key:
[1] = target: full-length HA from isolate A/Vietnam/1194/2004 (H5N1TV) expressed on PER.C6 cells (influenza A virus A/Vietnam/1194/2004 (H5N1)) (UniProt Q80A26); test: FACS on HA (H5N1TV)-expressing PER.C6 cells, IgG 10 µg/ml, separate experiment
[2] = target: recombinant HA, subtype H7 (A/Netherlands/219/03 (H7N7)) (influenza A virus A/Netherlands/219/03 (H7N7)); test: ELISA, IgG 5 µg/ml
[3] = target: recombinant HA, subtype H3 (A/Wyoming/3/2003(H3N2)) (influenza A virus A/Wyoming/3/2003 (H3N2)); test: ELISA, IgG 5 µg/ml
[4] = target: recombinant HA, subtype H9 (A/Hong Kong/1073/99 (H9N2)) (influenza A virus A/Hong Kong/1073/99 (H9N2)); test: ELISA, IgG 5 µg/ml
[5] = target: recombinant HA, subtype H5 (A/Vietnam/1203/2004 (H5N1)) (influenza A virus A/Vietnam/1203/2004 (H5N1)) (UniProt Q80A26); test: ELISA, IgG 5 µg/ml
[6] = target: recombinant HA, subtype H1 (A/New Caledonia/20/99 (H1N1)) (influenza A virus A/New Caledonia/20/99 (H1N1)) (UniProt Q289M7); test: ELISA, IgG 5 µg/ml
[7] = target: full-length HA from isolate A/Vietnam/1194/2004 (H5N1TV) expressed on PER.C6 cells (influenza A virus A/Vietnam/1194/2004 (H5N1)) (UniProt Q80A26); test: FACS on HA (H5N1TV)-expressing PER.C6 cells, IgG 10 µg/ml
[8] = target: full-length HA from isolate A/Vietnam/1194/2004 (H5N1TV) expressed on PER.C6 cells (influenza A virus A/Vietnam/1194/2004 (H5N1)) (UniProt Q80A26); test: FACS on HA (H5N1TV)-expressing PER.C6 cells, IgG 1 µg/ml, separate experiment
[9] = target: full-length HA from isolate A/Vietnam/1194/2004 (H5N1TV) expressed on PER.C6 cells (influenza A virus A/Vietnam/1194/2004 (H5N1)) (UniProt Q80A26); test: FACS on HA (H5N1TV)-expressing PER.C6 cells, IgG 0.1 µg/ml, separate experiment
[10] = target: full-length HA from isolate A/Vietnam/1194/2004 (H5N1TV) expressed on PER.C6 cells (influenza A virus A/Vietnam/1194/2004 (H5N1)) (UniProt Q80A26); test: FACS on HA (H5N1TV)-expressing PER.C6 cells, IgG 1 µg/ml
[11] = target: full-length HA from isolate A/Vietnam/1194/2004 (H5N1TV) expressed on PER.C6 cells (influenza A virus A/Vietnam/1194/2004 (H5N1)) (UniProt Q80A26); test: FACS on HA (H5N1TV)-expressing PER.C6 cells, IgG 0.1 µg/ml

Substance	flow cytometry signal [1]	OD 492nm [2]	OD 492nm [3]	OD 492nm [4]	OD 492nm [5]	OD 492nm [6]	flow cytometry signal [7]	flow cytometry signal [8]	flow cytometry signal [9]	flow cytometry signal [10]	flow cytometry signal [11]
CR3014 (antibody)	9.15	0.17 OD 492nm	0.07 OD 492nm	0.16 OD 492nm	0.09 OD 492nm	0.08 OD 492nm	13.1	7.95	10.5	10	6.21
CR6261 (antibody)		0.31 OD 492nm	0.07 OD 492nm		1.44 OD 492nm						
